Data taken from paper PMC12718150.

Key:
[1] = target: 2-hydroxy-hept-2,4-diene-1,7-dioate (HHDD) isomerase (HHDDI) from Acinetobacter baumannii TH (Acinetobacter baumannii TH)
[2] = target: 2-hydroxy-hept-2,4-diene-1,7-dioate (HHDD) isomerase (HHDDI) from Acinetobacter baumannii TH (Acinetobacter baumannii TH); test: SEC; ENrich SEC650 gel filtration column, FPLC; OPETD and HHDDI mixed at 1:1 molar ratio (0.5 and 1.0 mg/ml), incubated on ice in buffer G (50 mM HEPES, pH 7.0, 150 mM NaCl); 0.5 ml/min, 4 °C; native MW from a calibration curve
[3] = target: 2-hydroxy-hept-2,4-diene-1,7-dioate (HHDD) isomerase (HHDDI) from Acinetobacter baumannii TH (Acinetobacter baumannii TH); test: SEC; single purified enzyme (0.5-1.0 mg/ml) on ENrich SEC650 (10 x 300 mm), buffer G (50 mM HEPES, pH 7.0, 150 mM NaCl), 0.5 ml/min, 4 °C; native MW from a calibration curve of protein standards against subunit MW

| Substance | tri-acid decarboxylation activity of the OPETD-HHDDI complex against HHDDI alone (synthesized tri-acid substrate, LC-MS/MS of the di-acid) [1] [fold] | tri-acid decarboxylation activity of the OPETD-HHDDI complex against OPETD alone (synthesized tri-acid substrate, LC-MS/MS of the di-acid) [1] [fold] | stoichiometry N (OPETD per HHDDI) [2] | stoichiometry N [3] |
| --- | --- | --- | --- | --- |
| 5-oxo-pent-3-ene-1,2,5-tricarboxylate (OPET) decarboxylase (OPETD) from Acinetobacter baumannii TH (enzyme) | 12 | 60 | 1 |  |
| 2-hydroxy-hept-2,4-diene-1,7-dioate (HHDD) isomerase (HHDDI) from Acinetobacter baumannii TH (enzyme) |  |  |  | 2 |
